Experimental data taken from patent publication US20150239990A1 (published 2015).
Residue numbers refer to the chain shown, from its start.

B1: chimeric 1E2 Fab (llama VL and VH of 1E2 fused to human C-lambda and CH1) (Fab, V domains shown)
VH: EVQLVESGGGLVQPGGSLRLSCTASGFTFSNYWMYWVRQAPGKGLEWVSAINAAGSTYYADSVKGRFTISRDNAKNTLYLQMNSLQSEDTALYYCANLPRWGQGTQVTVSS
VL: QTVVTQEPSLSVSPGGTVTLTCGLSSGSVTSGNYPGWYQQKPGQAPRTLIYNTNSRYSGVPNRFSGSISGNKAALTITGAQPEDEADYYCAVYIGSSSYPVVFGGGTHLTVLG
notes: Purified from E. coli (pCB5, no gene3); Myc and hexahistidine tags on the Fd; also called wt 1E2
B2: Fab 1E2 wt VL / safe VH (with human CL and human CH1) (Fab, V domains shown)
VH: B1 VH with T23A, A74S, L92V
VL: B1 VL
notes: Purified from E. coli; also called wt/safe; wt VA/safe VH
B3: Fab 1E2 wt VL / hum VH (with human CL and human CH1) (Fab, V domains shown)
VH: B1 VH with T23A, A74S, Q86R, S87A, L92V, Q106L
VL: B1 VL
notes: Purified from E. coli; also called wt/hum; wt VA/hum VH
B4: safe variant 1F2 (partially humanized, fused to human C-lambda and CH1), Fab displayed on phage (Fab, V domains shown)
VH: EVQLLESGGGLVQPGGSLRLSCAASGFTFSTYAMSWVRQAPGKGPEWVSGINTGGGSTGYADSVKGRFTISRDNSKNTLYLQMNSLRPEDTAVYYCAKDWMATTPWGQGTQVTVSS
VL: QTVVTQEPSFSVSPGGTVTLTCGLSSGSVTTNNYPGWFQQTPGQAPRTLIYNTNNRHSGVPSRFSGSILGNKAALTITGAQADDESDYYCALYMSSGSNNAVFGGGTKLTVLG
notes: also called safe 1F2
B5: wt 1F2 (llama VL and VH fused to human C-lambda and CH1), Fab displayed on phage (Fab, V domains shown)
VH: B4 VH with L5V, S75A, R87K
VL: B4 VL with T2A, F10L, L69S, A82P, D83E, S86A, K108H
notes: Tested as a gene3-Fab fusion on phage (crude phage extract)
B6: hum 1F2 (fully humanized VL and VH fused to human C-lambda and CH1), Fab displayed on phage (Fab, V domains shown)
VH: B4 VH with P45L, P88A, Q111L
VL: B4 VL with F38Y, H57S, S62D
notes: Tested as a gene3-Fab fusion on phage
B7: hum 1E2 (fully humanized VL and VH fused to human C-lambda and CH1), Fab displayed on phage (Fab, V domains shown)
VH: B1 VH with T23A, A74S, Q86R, S87A, L92V, Q106L
VL: B1 VL with L10F, K41T, Y57S, N62D, S69L, P82A, E83D, A86S, H108K
notes: as for B6
B8: wt 1E2 (llama VL and VH fused to human C-lambda and CH1), Fab displayed on phage (Fab, V domains shown)
VH: B1 VH
VL: B1 VL
notes: as for B6
B9: safe variant 1E2 (partially humanized, fused to human C-lambda and CH1), Fab displayed on phage (Fab, V domains shown)
VH: B1 VH with T23A, A74S, L92V
VL: B1 VL with L10F, Y57S, N62D, S69L, E83D, A86S
notes: also called safe 1E2
B10: Fab 1F2 (llama Fab selected against IL-1Beta) (Fab, V domains shown)
VH: B4 VH with L5V, S75A, R87K
VL: B4 VL with T2A, F10L, L69S, A82P, D83E, S86A, K108H
notes: Original clone from the llama Fab phage library
B11: wild type llama 1E2 Fab (Fab, V domains shown)
VH: B1 VH
VL: B1 VL
notes: Produced from phagemid pCB3; Hexahistidine and myc tags at the C-terminus of the Fd; Captured by anti-myc; also called Fab 1E2

What follows are binders tested against T1, biotinylated human IL-1Beta (human, UniProt P01584 117-269, biotinylated (positions not stated)) (assay: ELISA: Fab captured on anti-myc plate, biotinylated human IL-1Beta, streptavidin-HRP).
T1 construct: In the assays it was biotinylated; also called biot-IL-1Beta
Procedure: For this the Fabs were captured on an anti-myc coated Maxisorp plate. Biotinylated human IL-1Beta was added and bound cytokine was detected using HRP-conjugated streptavidin.
The purified llama and chimeric 1E2 Fabs described above were captured on anti-myc coated maxisorp plates. After incubation with biotinylated human IL-1Beta and extensive washing, the biotinylated IL-1Beta bound to the Fab was detected using HRP-conjugated streptavidin.

| Binder | binding result |
| --- | --- |
| B1 | binds |
| B2 | binds |
| B3 | binds |

The binders below were run against T2, neutravidin (UniProt P02701 25-152) (assay: phage ELISA on neutravidin coated wells, anti-M13-HRP detection).
T2 construct: Capture reagent of the phage ELISA; Wells without biotinylated IL-1Beta served as the negative control
T2 sequence (P02701 25-152): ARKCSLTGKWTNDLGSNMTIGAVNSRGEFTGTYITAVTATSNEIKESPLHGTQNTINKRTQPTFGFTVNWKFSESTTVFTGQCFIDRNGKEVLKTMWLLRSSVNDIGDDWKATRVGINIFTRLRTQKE
Procedure: (§1) Four clones for each Fab were tested to overcome clonal variation (due to bacterial growth, phage production efficiency and toxicity etc. . . . ). Phage ELISA was performed by capturing of biotinylated IL-1Beta on neutravidin coated Maxisorp plate and subsequent incubation of crude phage extract (i.e. bacterial medium). After extensive washing, bound phages were detected with an anti-M13-HRP monoclonal antibody.

| Binder | binding result |
| --- | --- |
| B4 | no binding |
| B5 | no binding |
| B6 | no binding |
| B7 | no binding |
| B8 | no binding |
| B9 | no binding |

Each binder was assayed against T1, biotinylated human IL-1Beta (assay: phage display selection and phage ELISA on biotinylated IL-1Beta).

| Binder | binding result |
| --- | --- |
| B10 | binds |
| B11 | binds |

The binders below were run against T1, biotinylated human IL-1Beta (assay: phage ELISA: biotinylated IL-1Beta captured on neutravidin, crude phage, anti-M13-HRP).
Procedure: as §1

| Binder | binding result |
| --- | --- |
| B6 | binds |
